Measured values published in patent US20240124586A1 (WUXI BIOLOGICS IRELAND, published 2024).

B1: U6T5.G19R.IgG4, bispecific anti-PD-1 x CTLA-4 (bispecific antibody)
heavy: EVQLLESGGGLVQPGGSLRLSCAASGFTFSSHAMSWVRQAPGKGLEWVSTITGGGGSIYYADSVKGRFTISRDNSKNTLYLQMNSLRAEDTAVYYCAKNRAGEGYFDYWGQGTLVTVLEDLKNVFPPEVAVFEPSEAEISHTQKATLVCLATGFYPDHVELSWWVNGKEVHSGVCTDPQPLKEQPALQDSRYALSSRLRVSATFWQNPRNHFRCQVQFYGLSENDEWTQDRAKPVTQIVSAEAWGRYGPPCPPCPAPEFLGGPSVFLFPPKPKDTLMISRTPEVTCVVVDVSQEDPEVQFNWYVDGVEVHNAKTKPREEQFNSTYRVVSVLTVLHQDWLNGKEYKCKVSNKGLPSSIEKTISKAKGQPREPQVYTLPPSQEEMTKNQVSLTCLVKGFYPSDIAVEWESNGQPENNYKTTPPVLDSDGSFFLYSRLTVDKSRWQEGNVFSCSVMHEALHNHYTQKSLSLSLGGGGGSGGGGSGGGGSGGGGSQVQLVQSGAEVKKPGSSVKVSCKASGYTFTNYFMNWVRQAPGQGLEWMGRVDPEQGRADYAEKFKKRVTITADKSTSTAYMELSSLRSEDTAVYYCARRAMDNYGFAYWGQGTLVTVSSASTKGPSVFPLAPCSRSTSESTAALGCLVKDYFPEPVTVSWNSGALTSGVHTFPAVLQSSGLYSLSSVVTVPSSSLGTKTYTCNVDHKPSNTKVDKRV
light 1: SYELTQPLSVSVALGQTARITCGGDNIGNKDVHWYQQKPGQAPVLVIYRDSNRPSGIPEGFSGSNSGNTATLTISRAQAGDEADYYCQVWDSIWVFGGGTKLTVLPDIQNPDPAVYQLRDSKSSDKSVCLFTDFDSQTQVSQSKDSDVYITDKCVLDMRSMDFKSNSAVAWSQKSDFACANAFQNSIIPEDTFFPSPESS
light 2: EIVLTQSPDFQSVTPKEKVTITCSANSALSYMYWYQQKPDQSPKLWVHGTSNLASGVPSRFSGSGSGTDFTLTINSLEAEDAATYYCHHWSNTQWTFGGGTKVEIKRTVAAPSVFIFPPSDEQLKSGTASVVCLLNNFYPREAKVQWKVDNALQSGNSQESVTEQDSKDSTYSLSSTLTLSKADYEKHKVYACEVTHQGLSSPVTKSFNRGEC
notes: also called U6T5 in G19R format
B2: T4U6.G26R.IgG4, bispecific anti-CTLA-4 x PD-1 (bispecific antibody)
chain: QVQLQESGPGLVKPSETLSLTCSVTYHTITSGYDWTWIRKPPGKGMEWIGYISYSGNTNYNPSLKSRVTISRDTSKNQFFLKLSSVTAADTAVYYCASMMVPHYYVMDAWGQGTLVTVSSASTKGPSVFPLAPCSRSTSESTAALGCLVKDYFPEPVTVSWNSGALTSGVHTFPAVLQSSGLYSLSSVVTVPSSSLGTKTYTCNVDHKPSNTKVDKRVGGGGSGGGGSSYELTQPLSVSVALGQTARITCGGDNIGNKDVHWYQQKPGQAPVLVIYRDSNRPSGIPEGFSGSNSGNTATLTISRAQAGDEADYYCQVWDSIWVFGGGTKLTVLPDIQNPDPAVYQLRDSKSSDKSVCLFTDFDSQTQVSQSKDSDVYITDKCVLDMRSMDFKSNSAVAWSQKSDFACANAFQNSIIPEDTFFPSPESS
heavy: EVQLLESGGGLVQPGGSLRLSCAASGFTFSSHAMSWVRQAPGKGLEWVSTITGGGGSIYYADSVKGRFTISRDNSKNTLYLQMNSLRAEDTAVYYCAKNRAGEGYFDYWGQGTLVTVLEDLKNVFPPEVAVFEPSEAEISHTQKATLVCLATGFYPDHVELSWWVNGKEVHSGVCTDPQPLKEQPALQDSRYALSSRLRVSATFWQNPRNHFRCQVQFYGLSENDEWTQDRAKPVTQIVSAEAWGRYGPPCPPCPAPEFLGGPSVFLFPPKPKDTLMISRTPEVTCVVVDVSQEDPEVQFNWYVDGVEVHNAKTKPREEQFNSTYRVVSVLTVLHQDWLNGKEYKCKVSNKGLPSSIEKTISKAKGQPREPQVYTLPPSQEEMTKNQVSLTCLVKGFYPSDIAVEWESNGQPENNYKTTPPVLDSDGSFFLYSRLTVDKSRWQEGNVFSCSVMHEALHNHYTQKSLSLSLG
light: DIVMTQTPLSLSVTPGQPASISCRSSQSLLNSDGNTYLYWYLQKPGQSPQLLIYLVSKLGSGVPNRFSGSGSGTDFTLKISRVEAEDVGVYYCVQGTHDPWTFGGGTKVEIKRTVAAPSVFIFPPSDEQLKSGTASVVCLLNNFYPREAKVQWKVDNALQSGNSQESVTEQDSKDSTYSLSSTLTLSKADYEKHKVYACEVTHQGLSSPVTKSFNRGEC
notes: Light-heavy crossed chimeric Fab; first chain is T4-HC fused to U6-LC; T4 = WBP3162-1.146.19-z12; also called T4U6 antibody pair in G26R format
B3: U6T5.G19.IgG4, bispecific anti-PD-1 x CTLA-4 (bispecific antibody)
heavy: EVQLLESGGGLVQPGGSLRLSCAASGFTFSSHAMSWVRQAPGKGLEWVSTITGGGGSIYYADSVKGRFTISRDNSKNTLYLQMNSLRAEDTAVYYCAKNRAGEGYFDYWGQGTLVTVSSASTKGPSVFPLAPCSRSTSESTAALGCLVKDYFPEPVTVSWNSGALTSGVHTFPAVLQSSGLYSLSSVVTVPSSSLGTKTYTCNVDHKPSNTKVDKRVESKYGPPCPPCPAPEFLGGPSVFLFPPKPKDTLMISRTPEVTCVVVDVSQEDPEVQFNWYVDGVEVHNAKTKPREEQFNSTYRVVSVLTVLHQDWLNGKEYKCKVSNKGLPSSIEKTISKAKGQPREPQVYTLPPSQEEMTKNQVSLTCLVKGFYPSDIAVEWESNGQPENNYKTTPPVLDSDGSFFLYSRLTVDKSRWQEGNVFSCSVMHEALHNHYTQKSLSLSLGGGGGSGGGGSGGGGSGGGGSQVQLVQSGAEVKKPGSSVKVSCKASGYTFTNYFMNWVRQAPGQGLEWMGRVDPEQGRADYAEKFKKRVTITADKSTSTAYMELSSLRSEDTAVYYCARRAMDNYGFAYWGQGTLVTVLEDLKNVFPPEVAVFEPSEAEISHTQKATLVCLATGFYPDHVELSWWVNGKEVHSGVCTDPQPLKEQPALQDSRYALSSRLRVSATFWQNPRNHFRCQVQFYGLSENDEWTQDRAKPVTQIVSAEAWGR
light 1: SYELTQPLSVSVALGQTARITCGGDNIGNKDVHWYQQKPGQAPVLVIYRDSNRPSGIPEGFSGSNSGNTATLTISRAQAGDEADYYCQVWDSIWVFGGGTKLTVLGQPKAAPSVTLFPPSSEELQANKATLVCLISDFYPGAVTVAWKADSSPVKAGVETTTPSKQSNNKYAASSYLSLTPEQWKSHKSYSCQVTHEGSTVEKTVAPTECS
light 2: EIVLTQSPDFQSVTPKEKVTITCSANSALSYMYWYQQKPDQSPKLWVHGTSNLASGVPSRFSGSGSGTDFTLTINSLEAEDAATYYCHHWSNTQWTFGGGTKVEIKPDIQNPDPAVYQLRDSKSSDKSVCLFTDFDSQTQVSQSKDSDVYITDKCVLDMRSMDFKSNSAVAWSQKSDFACANAFQNSIIPEDTFFPSPESS
notes: T5 = anti-CTLA-4 antibody W3162_1.154.8-z35; also called U6T5 in G19 format
B4: U6T5.G25R.IgG4, bispecific anti-PD-1 x CTLA-4 (bispecific antibody)
heavy: EVQLLESGGGLVQPGGSLRLSCAASGFTFSSHAMSWVRQAPGKGLEWVSTITGGGGSIYYADSVKGRFTISRDNSKNTLYLQMNSLRAEDTAVYYCAKNRAGEGYFDYWGQGTLVTVSSASTKGPSVFPLAPCSRSTSESTAALGCLVKDYFPEPVTVSWNSGALTSGVHTFPAVLQSSGLYSLSSVVTVPSSSLGTKTYTCNVDHKPSNTKVDKRVGGGGSGGGGSQVQLVQSGAEVKKPGSSVKVSCKASGYTFTNYFMNWVRQAPGQGLEWMGRVDPEQGRADYAEKFKKRVTITADKSTSTAYMELSSLRSEDTAVYYCARRAMDNYGFAYWGQGTLVTVLEDLKNVFPPEVAVFEPSEAEISHTQKATLVCLATGFYPDHVELSWWVNGKEVHSGVCTDPQPLKEQPALQDSRYALSSRLRVSATFWQNPRNHFRCQVQFYGLSENDEWTQDRAKPVTQIVSAEAWGRYGPPCPPCPAPEFLGGPSVFLFPPKPKDTLMISRTPEVTCVVVDVSQEDPEVQFNWYVDGVEVHNAKTKPREEQFNSTYRVVSVLTVLHQDWLNGKEYKCKVSNKGLPSSIEKTISKAKGQPREPQVYTLPPSQEEMTKNQVSLTCLVKGFYPSDIAVEWESNGQPENNYKTTPPVLDSDGSFFLYSRLTVDKSRWQEGNVFSCSVMHEALHNHYTQKSLSLSLGK
light 1: B3 light 1
light 2: B3 light 2
notes: also called U6T5.G25R.uIgG4; U6T5 in G25R format
B5: WBP3055_1.153.7.hAb (antibody, V domains shown)
VH: EVQLLESGGGLVQPGGSLRLSCAASGFTFSSHAMSWVRQAPGKGLEWVSTITGGGGSIYYADSVKGRFTISRDNSKNTLYLQMNSLRAEDTAVYYCAKNRAGEGYFDYWGQGTLVTVSS
VL: SYELTQPLSVSVALGQTARITCGGDNIGNKDVHWYQQKPGQAPVLVIYRDSNRPSGIPEGFSGSNSGNTATLTISRAQAGDEADYYCQVWDSIWVFGGGTKLTVL
notes: anti-PD-1 antibody, parent of the U6 arm; also called W3055_1.153.7 (named U6); WBP3055-1.153.7.uIgG4k

Key:
[1] = target: T1, human PD-1 on engineered CHO-S cells (W305-CHO-S.hPro1.C6) (human, UniProt Q15116 25-288); assay: FACS on human PD-1 engineered cells
T1 construct: whole, on cells; also called human PD-1 engineered cells; PD-1+ cells
Description: (§1) Engineered human PD-1 expressing cells W305-CHO-S.hPro1.C6 were seeded at 1×10⁵ cells/well in U-bottom 96-well plates (COSTAR 3799). Antibodies with 3.16-fold titration in 1% BSA DPBS from 200 nM to 0.002 nM were added to the cells. The plates were incubated at 4° C. for 1 hour. After wash, […] 1:125 diluted PE-labeled goat anti-human antibody (Jackson 109-115-098) was added to each well and the plates were incubated at 4° C. for 1 hour. The binding of the antibodies onto the cells was tested by flow cytometry and the mean fluorescence intensity (MFI) was analyzed by FlowJo.

[2] = target: T2, human CTLA-4 on engineered 293F cells (W316-293F.hPro1.FL) (human, UniProt P16410 36-223); assay: FACS on human CTLA-4 engineered cells
T2 construct: whole, on cells; also called human CTLA-4 engineered cells; CTLA-4+ cells
Description: (§2) 3.16-fold titrated Abs with 1% BSA DPBS from 200 nM to 0.002 nM were added to the cells. Plates were incubated at 4° C. for 1 hour. After wash, […] 1:150 diluted PE-labeled goat anti-human antibody (Jackson 109-115-098) was added to each well and the plates were incubated at 4° C. for 1 hour. The binding of the antibodies onto the cells was tested by flow cytometry and the mean fluorescence intensity (MFI) was analyzed by FlowJo.

[3] = target: T1, human PD-1 on engineered CHO-S cells …; assay: FACS binding to human PD-1 engineered cells
Description: as §1

[4] = target: T2, human CTLA-4 on engineered 293F cells …; assay: FACS binding to human CTLA-4 engineered cells
Description: as §2

[5] = target: T3, cynomolgus PD-1 on engineered 293F cells (W305-293F.cynoPro1.FL.pool) (cynomolgus); assay: FACS binding to cynomolgus PD-1 engineered cells
T3 construct: whole, on cells; also called cynomolgus PD-1 engineered cells
Description: as §2, with “4.0-fold” for “3.16-fold”, “40 μg/ml” for “200 nM”, “0.0001526 μg/ml” for “0.002 nM”

[6] = target: T1, human PD-1 on engineered CHO-S cells …; assay: FACS competition: blocks human PD-L1 protein (W315-hPro1.ECD.mFc) binding to human PD-1 engineered cells
Description: In order to test whether the bispecific antibodies could block hPD-L1 binding to hPD-1 protein, a competitive FACS was conducted. […] Plates were incubated at 4° C. for 1 hour. After wash, the binding of W315-hPro1.ECD.mFc to cell expressive human PD-1 was detected by FITC-labeled goat anti-mouse antibody (abcam 98716 1:125). The competition binding of antibodies to the cells was tested by flow cytometry and the mean fluorescence intensity (MFI) was analyzed by FlowJo.

T2 sequence (P16410 36-223, change not shown): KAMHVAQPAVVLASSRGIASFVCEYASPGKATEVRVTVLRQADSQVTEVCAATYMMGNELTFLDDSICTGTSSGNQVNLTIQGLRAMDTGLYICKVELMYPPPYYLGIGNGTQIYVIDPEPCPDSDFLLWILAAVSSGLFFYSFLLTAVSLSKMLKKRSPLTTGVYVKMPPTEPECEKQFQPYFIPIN
T1 sequence (Q15116 25-288, change not shown): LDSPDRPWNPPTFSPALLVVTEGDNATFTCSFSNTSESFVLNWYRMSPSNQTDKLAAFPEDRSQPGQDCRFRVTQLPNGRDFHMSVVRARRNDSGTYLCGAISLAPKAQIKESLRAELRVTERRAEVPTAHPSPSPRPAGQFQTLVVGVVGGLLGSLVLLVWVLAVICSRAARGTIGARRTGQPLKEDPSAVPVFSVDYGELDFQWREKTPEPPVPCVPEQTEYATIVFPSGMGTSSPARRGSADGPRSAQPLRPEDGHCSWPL

Binder | EC50 [1] | EC50 [2] | other results
B1 | 1.26 nM | 8.23 nM | 
B2 |  |  | EC50 [3]: 4.78 nM; EC50 [4]: 5.91 nM
B3 | 0.97 nM | 8.93 nM | 
B4 | 1.56 nM | 8.36 nM | 
B5 |  |  | EC50 [5]: 3.48 nM; Top(MFI) [5]: 56700 MFI; IC50 [6]: 0.888 nM; Inhibition % [6]: 98.6%
